According to US20160320391A1 (Genentech, published 2016):

How the values were obtained:
[1] = target: T1, purified recombinant soluble hamster (Cricetulus griseus) phospholipase B-like 2 (PLBL2), his-tagged (hamster (Cricetulus griseus)); assay: sandwich ELISA, 19C10 coated as capture antibody, PLBL2 standard titrated, detection with biotinylated 15G11 and streptavidin-HRP, OD 450 nm; the value describes the whole sandwich
T1 construct: Transiently expressed in CHO-K1 cells and purified from the supernatant; In the rabbit serum assay the protein was biotinylated; also called PLB2; PLBD2; not shown: histidine (his) tag added
T1 chain: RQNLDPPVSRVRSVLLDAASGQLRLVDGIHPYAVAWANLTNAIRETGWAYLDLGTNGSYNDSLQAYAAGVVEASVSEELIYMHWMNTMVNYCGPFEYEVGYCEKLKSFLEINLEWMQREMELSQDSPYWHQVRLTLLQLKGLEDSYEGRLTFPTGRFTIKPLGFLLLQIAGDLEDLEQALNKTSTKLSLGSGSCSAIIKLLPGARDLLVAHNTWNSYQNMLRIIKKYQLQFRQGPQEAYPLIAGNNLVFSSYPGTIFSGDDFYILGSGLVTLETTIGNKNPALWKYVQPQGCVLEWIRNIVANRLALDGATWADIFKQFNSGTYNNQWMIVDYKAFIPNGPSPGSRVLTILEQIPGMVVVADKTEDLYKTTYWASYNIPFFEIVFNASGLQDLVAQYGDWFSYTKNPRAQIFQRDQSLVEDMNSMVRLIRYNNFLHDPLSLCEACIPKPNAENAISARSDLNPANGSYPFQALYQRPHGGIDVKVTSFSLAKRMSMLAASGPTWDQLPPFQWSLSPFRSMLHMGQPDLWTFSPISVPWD
Procedure: (§1) An ELISA assay to detect and quantify the CHOP impurity, PLBL2, in recombinant polypeptide samples, such as recombinant antibody or immunoadhesin preparations, was developed. The procedure is as follows. Murine monoclonal antibody 19C10 was coated onto a half area 96-well microtiter plate at a concentration of 0.5 μg/mL in carbonate buffer (0.05M sodium carbonate, pH 9.6), overnight at 2-8° C. After coating, the plate was blocked with Blocking Buffer (0.15M NaCl, 0.1M sodium phosphate, 0.1% fish gelatin, 0.05% polysorbate 20, 0.05% Proclin® 300 [Sigma-Aldrich]; also referred to as Assay Diluent) to prevent non-specific sticking of proteins. […]
(§2) After a 2 hr. incubation step with biotinylated 15G11 at room temperature, Streptavidin HRP (1:200,000 dilution in Assay Diluent) was added to the microtiter plate wells. After a final wash step with Wash Buffer (described above), color was developed (for PLBL2 quantification) by adding a solution of TMB (50 μl/well) (SUREBLUE RESERVE™ from KPL, Kirkegaard & Perry Laboratories, Inc., Gaithersburg, Md., cat no. 53-00-03) followed by incubation at room temperature for 10-20 minutes. […]

[2] = target: T1, purified recombinant soluble hamster …; assay: sandwich ELISA, biotinylated 15G11 as detection antibody on PLBL2 standard captured by coated 19C10, streptavidin-HRP, OD 450 nm; the value describes the whole sandwich
Procedure: as §1, §2

B1: 19C10 (recombinant murine monoclonal anti-hamster PLBL2 antibody) (antibody, mouse IgG1, kappa, V domains shown)
VH: EVQLQESGPCLVKPSQTLSLTCSVTGDSITSGYWNWIRKFPGNKLESMGYISYSGSTYYNPSLKSRISITRDTSKNQYYLQLNSVTTEDTATYYCARIASWITTYFDYWGQGTTLTVSS
VL: DIVMTQSPAILSVSPGERVSFSCRASQSIGTSIHWYQQRRNGSPRLLIKYASESISGIPSRFSGSGSGTDFILSINSVESEDIADYYCQQSNSWPYTFGGGTKLELKR
notes: Mouse IgG1, kappa, expressed transiently in 293 or CHO cells; also called capture antibody; coat antibody
- EC50 (read off the curve) [1]: ~10 ng/mL

B2: 15G11 anti-PLBL2 murine monoclonal antibody conjugated to biotin (antibody, mouse IgG1, kappa, V domains shown)
VH: EVKLEESGGGLVQPGGSTKLSCAASGFTFSDAWMDWVRQCPEKGLEWVAEISSKANNRATYYAESVKGRFTISRDDSKSCVYLQMNSLRAEDTGIYYCTRRGYTMDYWGQGTSVTVSS
VL: DIVMTQSQKFMSTSVGDRVSVTCKASQNVDTNVAWYQQKPGQSPKALIFSASYRFSGVPDRFTGSGSGTDFTLTISNVQSEDLAEYFCQQYNNFPFTFGSGTKLELKR
modifications: biotin conjugated with E-Z Link NHS-Biotin; sites not stated
notes: Mouse IgG1, kappa, biotinylated; Used as the detection antibody of the monoclonal PLBL2 ELISA; also called biotinylated 15G11; detection antibody
- EC50 (read off the curve) [2]: ~10 ng/mL
